We go through three molecules from patent US20210101970A1 (Pfizer, published 2021).

Test [1] has as its target T1, mouse CXCR5 (mouse, UniProt Q04683 1-374).
T1 construct: also called mCXCR5
T1 sequence: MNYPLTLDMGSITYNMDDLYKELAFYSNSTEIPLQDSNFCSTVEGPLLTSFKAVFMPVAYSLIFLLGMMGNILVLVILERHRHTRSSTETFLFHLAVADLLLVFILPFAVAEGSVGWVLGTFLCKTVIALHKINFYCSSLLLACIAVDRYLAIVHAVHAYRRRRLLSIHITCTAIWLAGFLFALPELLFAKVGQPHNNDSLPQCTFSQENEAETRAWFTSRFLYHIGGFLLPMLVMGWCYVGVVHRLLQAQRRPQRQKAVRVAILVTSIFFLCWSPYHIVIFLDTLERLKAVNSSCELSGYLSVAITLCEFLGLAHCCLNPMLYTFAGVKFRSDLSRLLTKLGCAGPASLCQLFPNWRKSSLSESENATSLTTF
Kind of test: FACS on cells expressing the CXCR5 construct.

For test [2], the target named is T2, human CXCR5 (human, UniProt P32302 1-372).
T2 construct: also called hCXCR5; C-X-C chemokine receptor type 5
T2 sequence: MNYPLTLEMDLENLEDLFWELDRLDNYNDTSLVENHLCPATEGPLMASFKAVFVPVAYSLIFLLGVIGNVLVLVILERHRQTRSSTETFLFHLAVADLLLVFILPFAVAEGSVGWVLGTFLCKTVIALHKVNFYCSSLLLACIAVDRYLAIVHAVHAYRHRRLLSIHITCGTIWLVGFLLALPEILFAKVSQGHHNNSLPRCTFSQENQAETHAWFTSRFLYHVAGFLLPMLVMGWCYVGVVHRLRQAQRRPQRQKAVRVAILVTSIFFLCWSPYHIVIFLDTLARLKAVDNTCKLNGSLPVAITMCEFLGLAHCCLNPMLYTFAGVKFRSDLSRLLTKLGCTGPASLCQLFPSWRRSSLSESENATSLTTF
Kind of test: flow cytometry on Raji cells. In general terms: In flow cytometry, cells or beads pass a laser one at a time.

Test [3] addresses T1, mouse CXCR5. Kind of test: flow cytometry on cells expressing mouse CXCR5.
In test [4] the target is T3, cynomolgus monkey CXCR5 (cynomolgus monkey, UniProt P32302 1-372 (human entry)).
T3 construct: also called cynoCXCR5; NHP CXCR5
T3 chain: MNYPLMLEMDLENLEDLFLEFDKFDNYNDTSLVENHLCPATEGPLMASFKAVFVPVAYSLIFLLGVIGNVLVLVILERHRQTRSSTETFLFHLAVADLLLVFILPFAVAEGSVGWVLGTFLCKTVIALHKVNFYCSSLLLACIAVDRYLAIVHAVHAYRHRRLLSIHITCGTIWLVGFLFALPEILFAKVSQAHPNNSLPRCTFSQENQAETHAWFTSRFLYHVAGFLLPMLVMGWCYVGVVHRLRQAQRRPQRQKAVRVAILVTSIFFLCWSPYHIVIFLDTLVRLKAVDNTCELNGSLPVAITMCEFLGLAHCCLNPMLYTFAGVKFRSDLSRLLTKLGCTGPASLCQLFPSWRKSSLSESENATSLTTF
In words: flow cytometry, cynomolgus PBMC B cells. The method in brief: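 Human and cynomolgus PBMCs stained with 4-fold serial antibody dilutions (11 points from 5000 ng/mL) plus Fc block, 2 h on ice, then lineage markers and anti-human Ig secondary 30 min at 4 °C. gMFI of binding population read by flow cytometry; EC50 from sigmoidal fit of equilibrium binding curves.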

For test [5], the target named is T2, human CXCR5. Kind of test: flow cytometry, human PBMC B cells.
Test [6] addresses T4, rat CXCR5 ortholog (rat, UniProt P34997 1-374).
T4 sequence (looked up): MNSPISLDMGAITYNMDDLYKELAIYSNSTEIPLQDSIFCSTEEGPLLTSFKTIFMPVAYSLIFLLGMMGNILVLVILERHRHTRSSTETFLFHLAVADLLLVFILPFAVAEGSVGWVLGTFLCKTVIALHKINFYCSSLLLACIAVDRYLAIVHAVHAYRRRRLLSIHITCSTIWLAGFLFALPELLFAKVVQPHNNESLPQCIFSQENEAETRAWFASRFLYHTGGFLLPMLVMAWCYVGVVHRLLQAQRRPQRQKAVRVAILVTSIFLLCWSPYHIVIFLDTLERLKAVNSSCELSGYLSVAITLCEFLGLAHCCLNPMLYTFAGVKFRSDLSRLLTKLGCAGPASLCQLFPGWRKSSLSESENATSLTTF
Kind of test: not described.

B1: 2C9 (reference antibody) (antibody, human IgG1, kappa, V domains shown)
VH: EVQLVESGGGLVKPGGSLRLSCAASGFTFSTNAMNWVRQAPGKGLERVARIRSKSNNYATYYADSVKDRFTISRDDSKNTLYLQMNSLKTEDTAVYYCVTMIPFAYWGQGTLVTVSS
VL: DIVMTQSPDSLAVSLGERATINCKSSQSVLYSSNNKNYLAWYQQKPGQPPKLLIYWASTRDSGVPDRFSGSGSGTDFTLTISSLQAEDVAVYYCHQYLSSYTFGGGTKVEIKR
notes: fucosylated
Consider B1, for which the GMFI in test [1] came to 1180 GMFI. The same molecule came in with an EC50 in test [2] of 99.9 pM. Besides, in test [3], the binding result is reported as “no binding”.

B2: Chimeric 11G2 (antibody, human IgG1, kappa, V domains shown)
VH: EVKLVESGGGLVQPGGSLRLSCATSGFTFTDFYMSWVRQPPGRALEWLGFIRNKANGYTTEYSASVKGRFTISRDNSQSILYLQMNTLRAGDSATYYCVRVYGSTLHYWGQGTILTVSS
VL: DVVVTQSPDSLAVSLGQRATISCRASESVEYHGTSLMHWYQQKPGQPPKLLIYAASNVESGVPARFSGSGSGTDFSLNIHPVEEGDIAMYFCQQSRKVPWTFGGGTKLEIKR
notes: mouse V regions on human IgG1/kappa; also called 11G2 (chimeric)
The molecule B2 registered an EC50 in test [4] of 6.95 pM.

B3: Afucosyl humanized 11G2 154/155 (antibody, human IgG1, kappa, V domains shown)
VH: EVQLVESGGGLVQPGGSLRLSCAASGFTFTDFYMSWVRQAPGKGLEWVGFIRNKANGYTTEYSASVKGRFTISRDNAKNSLYLQMNSLRAEDTAVYYCARVYGSTLHYWGQGTLVTVSS
VL: DIQMTQSPSSLSASVGDRVTITCRASESVEYHGTSLMHWYQQKPGKAPKLLIYAASNVESGVPSRFSGSGSGTDFTLTISSLQPEDFATYYCQQSRKVPWTFGQGTKVEIKR
modifications: afucosylated Fc glycan (Asn297)
notes: also called afucosyl h11G2 XC154/XC155; afucosylated h11G2 VL XC154/VH XC155
Turning to B3, the “fold higher affinity than 2C9” value in test [5] was about 10 fold. Besides, the “fold higher affinity than 11A7” value in test [5] was about 100 fold. In addition, the half-maximal effective concentration (EC50) in test [4] amounted to 1.32 pM. In test [1], this molecule showed a GMFI of 901 GMFI. In addition, the binding result in test [3] and in test [6] was “no binding” throughout.

The term EC50 denotes the midpoint of the concentration-response curve.
